From patent US20260022175A1 (Chugai, published 2026) come the findings set out here.

Experiment [1] concerns the target T1, human FcγRIIb extracellular domain with C-terminal His-tag (human, UniProt P31994 43-217).
T1 construct: extracellular domain; also called hFcγR IIb
T1 sequence (looked up): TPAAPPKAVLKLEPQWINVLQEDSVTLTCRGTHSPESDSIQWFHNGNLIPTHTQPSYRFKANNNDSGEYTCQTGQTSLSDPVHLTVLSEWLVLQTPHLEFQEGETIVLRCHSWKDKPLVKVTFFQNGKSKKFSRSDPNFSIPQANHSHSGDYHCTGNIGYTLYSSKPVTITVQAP
Kind of experiment: SPR; FcγRIIb at 1000 nM, bound amount per unit captured Ab. (In general: Surface plasmon resonance follows binding to a sensor surface in real time, without labels.)
Experimental: (§1) The interaction between the generated antibodies and human FcγRs was analyzed by the following method using Biacore T200. 50 mM Na-Phosphate, 150 mM NaCl, 0.05% Tween20 (pH 7.4) was used as the running buffer, and the assay was performed at 25° C. For the sensor chips, Series S SA (GE Healthcare) chips onto which CaptureSelect Human Fab-lambda Kinetics Biotin Conjugate (Thermo Fisher Scientific) was immobilized were used. The antibodies of interest were captured onto these chips and each FcγR diluted in the running buffer was allowed to interact with them. Chips were regenerated with 10 mM Glycine-HCl (pH 1.5) and 25 mM NaOH, and assay was performed by repeatedly capturing antibodies. The dissociation constants KD (mol/L) for FcγRs of each antibody were calculated using Biacore T200 Evaluation Software 2.0, using the 1:1 Langmuir binding model for FcγRIa and FcγRIIIa and the steady state affinity model for FcγRIIa. For FcγRIIb, the binding amount of FcγRIIb per unit amount of antibody was calculated by correcting the binding amount of FcγRIIb obtained from the sensorgram obtained by the measurement with the amount of antibody captured onto the chip surface.

The target in experiment [2] is T2, human FcRn (human, UniProt P55899 24-290; P61769 21-119).
T2 construct: Prepared by the method of WO 2010/107110; also called hFcRn
T2 sequence (P55899 24-290 limits assumed, chain 1 of 2): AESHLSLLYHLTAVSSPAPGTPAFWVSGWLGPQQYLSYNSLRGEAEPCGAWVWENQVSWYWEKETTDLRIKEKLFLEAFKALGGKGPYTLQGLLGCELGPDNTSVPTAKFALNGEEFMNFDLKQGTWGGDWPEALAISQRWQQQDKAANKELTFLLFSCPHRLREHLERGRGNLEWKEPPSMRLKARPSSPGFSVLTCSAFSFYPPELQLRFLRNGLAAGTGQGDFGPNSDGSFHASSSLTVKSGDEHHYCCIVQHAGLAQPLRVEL
T2 sequence (P61769 21-119 limits assumed, chain 2 of 2): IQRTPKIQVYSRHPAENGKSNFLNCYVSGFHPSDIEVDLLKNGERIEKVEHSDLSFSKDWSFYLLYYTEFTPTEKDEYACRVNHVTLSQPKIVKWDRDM
Kind of experiment: SPR Biacore T200, Ab captured via Fab-lambda, pH 6.0, 25C, steady state.

Experiment [3] concerns the target T3, human FcγRIa extracellular domain with C-terminal His-tag (human, UniProt P12314 16-292).
T3 construct: extracellular domain; also called hFcγR Ia; hFcγRIa
Kind of experiment: SPR Biacore T200, Ab captured via Fab-lambda, pH 7.4, 25C.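 Note: antibodies captured on a streptavidin chip carrying biotinylated anti-Fab-lambda, with each FcγR injected as analyte in phosphate buffer. KD fitted by 1:1 Langmuir or steady-state model depending on receptor.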
Experimental: as §1

Experiment [4] has as its target T4, human FcγRIIIa V allotype extracellular domain with C-terminal His-tag (human, UniProt P08637 17-208).
T4 construct: extracellular domain; also called hFcγR IIIa V
The experiment is described as above.
Experimental: as §1

Experiment [5] has as its target T5, human FcγRIIIa F allotype extracellular domain with C-terminal His-tag (human, UniProt P08637 17-208).
T5 construct: extracellular domain; also called hFcγR IIIa F
The experiment is described as above.
Experimental: as §1

Experiment [6] has as its target T6, human FcγRIIa R allotype extracellular domain with C-terminal His-tag (human, UniProt P12318 34-217).
T6 construct: extracellular domain; also called hFcγR IIa R
T6 sequence (looked up): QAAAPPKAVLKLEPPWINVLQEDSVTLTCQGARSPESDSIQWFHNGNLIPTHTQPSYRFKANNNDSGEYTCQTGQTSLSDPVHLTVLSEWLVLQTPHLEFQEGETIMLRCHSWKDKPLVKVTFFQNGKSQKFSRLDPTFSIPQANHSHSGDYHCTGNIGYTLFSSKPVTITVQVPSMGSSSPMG
The description is as above.
Experimental: as §1

The target of experiment [7] is T7, human FcγRIIa H allotype extracellular domain with C-terminal His-tag (human, UniProt P12318 34-217).
T7 construct: extracellular domain; also called hFcγR IIa H
T7 sequence (looked up): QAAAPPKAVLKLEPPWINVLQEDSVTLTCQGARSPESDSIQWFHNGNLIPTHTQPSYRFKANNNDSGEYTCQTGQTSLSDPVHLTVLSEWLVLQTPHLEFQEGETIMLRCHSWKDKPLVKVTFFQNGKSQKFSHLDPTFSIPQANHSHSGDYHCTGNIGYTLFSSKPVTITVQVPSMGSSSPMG
The experiment is described as above.
Experimental: as §1

For experiment [8], the target named is T3, human FcγRIa extracellular domain with …. Kind of experiment: SPR; KD of 04H1637-G1m/04L1610-lam1 divided by KD of variant.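 Note: biacore T200 SPR at 25 °C, antibodies captured on anti-Fab-lambda SA chip with receptor as analyte, running buffer pH 7.4 for FcγRs and pH 6.0 for FcRn.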
For experiment [9], the target named is T4, human FcγRIIIa V allotype extracellular …. The experiment is described as above.
The target in experiment [10] is T5, human FcγRIIIa F allotype extracellular …. The description is as above.
In experiment [11] the target is T2, human FcRn. Described as above.
Experiment [12] concerns the target T6, human FcγRIIa R allotype extracellular …. The description is as above.
Experiment [13] addresses T7, human FcγRIIa H allotype extracellular …. The experiment is described as above.
For experiment [14], the target named is T1, human FcγRIIb extracellular domain with …. Kind of experiment: SPR; binding amount divided by that of 04H1637-G1m/04L1610-lam1.

The term Kd denotes the constant that tells how readily two partners part at equilibrium. Higher therefore signals weaker binding.

T5 sequence (P08637 17-208): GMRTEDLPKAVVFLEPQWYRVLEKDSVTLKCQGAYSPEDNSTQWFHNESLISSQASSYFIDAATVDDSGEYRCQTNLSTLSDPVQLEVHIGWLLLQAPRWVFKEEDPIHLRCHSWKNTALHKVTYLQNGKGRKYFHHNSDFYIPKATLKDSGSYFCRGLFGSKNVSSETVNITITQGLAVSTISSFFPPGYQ
T4 sequence (P08637 17-208 F176V): as the sequence (P08637 17-208) above, with F160V counted along it
T3 sequence (P12314 16-292): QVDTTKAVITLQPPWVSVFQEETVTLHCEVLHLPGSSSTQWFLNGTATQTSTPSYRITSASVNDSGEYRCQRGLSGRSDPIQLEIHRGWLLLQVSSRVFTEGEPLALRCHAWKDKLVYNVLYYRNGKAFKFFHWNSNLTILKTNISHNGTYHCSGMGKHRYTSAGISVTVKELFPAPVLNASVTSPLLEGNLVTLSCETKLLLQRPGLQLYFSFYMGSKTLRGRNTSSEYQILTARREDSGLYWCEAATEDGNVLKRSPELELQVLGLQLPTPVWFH

B1: 04H1654-KT481/04L1610-lam1//04H1656-HT498/04L1610-lam1 (antibody)
heavy 1: QVQLVESGGGVVQPGGSLRLSCAASGFTFSSKTMNWVRQAPGKGLEWVSSISTQSHYIYYARSVRGRFTISRDNAKNSLYLQMNSLRAEDTAVYYCARYGKREDMLWVFDYWGQGTLVTVSSASTKGPSVFPLAPSSKSTSGGTAALGCLVKDYFPEPVTVSWNSGALTSGVHTFPAVLQSSGLYSLSSVVTVPSSSLGTQTYICNVNHKPSNTKVDKRVEPKSCDKTHTCPPCPAPEFQWGPMVFLFPPKPKDVLMISRTPEVTCVVVDVSDEEPEVKFNWYVDGVEVHNAKTKPREEQYNATYRVVSVLPVLHQDWLNGKEYKCKVSNDALPAPEEKTISKAKGQPREPQVYTLPPSRKEMTKNQVSLTCLVKGFYPSDIAVEWESNGQPENNYKTTPPVLDSDGSFFLYSKLTVDKSRWQQGNVFSCSVMHEALHAHTTRKELSLSP
heavy 2: QVQLVESGGGVVQPGGSLRLSCAASGFTFSSKTMNWVRQAPGKGLEWVSSISTQSHYIYYAESVRGRFTISRDNAKNSLYLQMNSLRAEDTAVYYCARYGAREDMLWVFDYWGQGTLVTVSSASTKGPSVFPLAPSSKSTSGGTAALGCLVKDYFPEPVTVSWNSGALTSGVHTFPAVLQSSGLYSLSSVVTVPSSSLGTQTYICNVNHKPSNTKVDKRVEPKSCDKTHTCPPCPAPELLAGPSVFLFPPKPKDVLMISRTPEVTCVVVDVSHEEPEVKFNWYVDGVEVHNAKTKPREEQYNATYRVVSVLPVLHQDWLNGKEYKCKVSNDALPAPEEETISKAKGQPREPQVYTLPPSREEMTKNQVSLTCLVKGFYPSDIAVEWESNGQPENNYKTTPPVLDSDGSFFLYSKLTVDKSRWQQGNVFSCSVMHEALHAHTTREELSLSP
light: QSALTQPPSASGSPGQSVTISCEGPSTGVGDYNWVHWYQQHPGKAPKLMIYFTSKKPSGVPDRFSGSKSGNTASLTVSGLQAEDEADYYCQTYAAPLGPMFGGGTKLTVLGQPKAAPSVTLFPPSSEELQANKATLVCLISDFYPGAVTVAWKADSSPVKAGVETTTPSKQSNNKYAASSYLSLTPEQWKSHRSYSCQVTHEGSTVEKTVAPTECS
notes: Heterodimerized antibody with N434A/Y436T/Q438R/S440E
As to B1, in [1], the Binding amount worked out at 0.022. The Kd in [2] turned out to be 570 nM; in [3] it was 0.033 nM; in experiment [4] it was 1.6 nM; in [5], 2.8 nM; in [6], 260 nM; in experiment [7], 230 nM. In addition, the “Relative value to KD between G1m and hFcγRs” value was 1.5 in experiment [8]; 152 in [9]; 495 in experiment [10]; 7.7 in experiment [12]; 6.5 in experiment [13]. For the same molecule, the “Relative value to KD between G1m and hFcRn” value in [11] was 2.3. This molecule came in with a Relative binding amount in experiment [14] of 2.7.

B2: 04H1654-KT481/04L1612-lam1//04H1656-HT498/04L1612-lam1 (antibody)
heavy 1: QVQLVESGGGVVQPGGSLRLSCAASGFTFSSKTMNWVRQAPGKGLEWVSSISTQSHYIYYARSVRGRFTISRDNAKNSLYLQMNSLRAEDTAVYYCARYGKREDMLWVFDYWGQGTLVTVSSASTKGPSVFPLAPSSKSTSGGTAALGCLVKDYFPEPVTVSWNSGALTSGVHTFPAVLQSSGLYSLSSVVTVPSSSLGTQTYICNVNHKPSNTKVDKRVEPKSCDKTHTCPPCPAPEFQWGPMVFLFPPKPKDVLMISRTPEVTCVVVDVSDEEPEVKFNWYVDGVEVHNAKTKPREEQYNATYRVVSVLPVLHQDWLNGKEYKCKVSNDALPAPEEKTISKAKGQPREPQVYTLPPSRKEMTKNQVSLTCLVKGFYPSDIAVEWESNGQPENNYKTTPPVLDSDGSFFLYSKLTVDKSRWQQGNVFSCSVMHEALHAHTTRKELSLSP
heavy 2: QVQLVESGGGVVQPGGSLRLSCAASGFTFSSKTMNWVRQAPGKGLEWVSSISTQSHYIYYAESVRGRFTISRDNAKNSLYLQMNSLRAEDTAVYYCARYGAREDMLWVFDYWGQGTLVTVSSASTKGPSVFPLAPSSKSTSGGTAALGCLVKDYFPEPVTVSWNSGALTSGVHTFPAVLQSSGLYSLSSVVTVPSSSLGTQTYICNVNHKPSNTKVDKRVEPKSCDKTHTCPPCPAPELLAGPSVFLFPPKPKDVLMISRTPEVTCVVVDVSHEEPEVKFNWYVDGVEVHNAKTKPREEQYNATYRVVSVLPVLHQDWLNGKEYKCKVSNDALPAPEEETISKAKGQPREPQVYTLPPSREEMTKNQVSLTCLVKGFYPSDIAVEWESNGQPENNYKTTPPVLDSDGSFFLYSKLTVDKSRWQQGNVFSCSVMHEALHAHTTREELSLSP
light: QSALTQPPSASGSPGQSVTISCEGPSTGVGDYTYVHWYQQHPGKAPKLMIYFTSKKPSGVPDRFSGSKSGNTASLTVSGLQAEDEADYYCQTYAAPLGPMFGGGTKLTVLGQPKAAPSVTLFPPSSEELQANKATLVCLISDFYPGAVTVAWKADSSPVKAGVETTTPSKQSNNKYAASSYLSLTPEQWKSHRSYSCQVTHEGSTVEKTVAPTECS
notes: as for B1
With B2, the Binding amount in experiment [1] came to 0.022. The Kd in [2] was found to be 600 nM; in [3], 0.043 nM; in experiment [4] it was 1.7 nM; in [5], 2.9 nM; in experiment [6] it was 270 nM; in [7], 230 nM. Moreover, the “Relative value to KD between G1m and hFcγRs” value in experiment [8] amounted to 1.1; in experiment [9], 145; in experiment [10], 479; in experiment [12], 7.6; in experiment [13] it was 6.4. Moreover, in experiment [11], the “Relative value to KD between G1m and hFcRn” value came to 2.2. For the same molecule, the Relative binding amount in experiment [14] was determined as 2.8.
